Results as given in patent US20260285964 (published 2026).

Tests used:
[1] = biological target: T1, mouse IL-36R (IL-1Rrp2) (mouse, UniProt Q9ERS7)
T1 chain: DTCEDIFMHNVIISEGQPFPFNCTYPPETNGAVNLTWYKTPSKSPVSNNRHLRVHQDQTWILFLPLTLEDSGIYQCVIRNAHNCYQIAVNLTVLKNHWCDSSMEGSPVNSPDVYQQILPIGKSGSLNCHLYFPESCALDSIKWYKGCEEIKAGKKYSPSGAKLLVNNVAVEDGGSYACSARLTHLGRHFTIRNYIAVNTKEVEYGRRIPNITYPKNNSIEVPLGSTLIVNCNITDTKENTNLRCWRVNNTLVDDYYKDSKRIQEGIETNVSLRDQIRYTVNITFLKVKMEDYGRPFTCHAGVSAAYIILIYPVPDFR

[2] = biological target: T2, rat IL-36R (rat, UniProt Q62929)
T2 chain: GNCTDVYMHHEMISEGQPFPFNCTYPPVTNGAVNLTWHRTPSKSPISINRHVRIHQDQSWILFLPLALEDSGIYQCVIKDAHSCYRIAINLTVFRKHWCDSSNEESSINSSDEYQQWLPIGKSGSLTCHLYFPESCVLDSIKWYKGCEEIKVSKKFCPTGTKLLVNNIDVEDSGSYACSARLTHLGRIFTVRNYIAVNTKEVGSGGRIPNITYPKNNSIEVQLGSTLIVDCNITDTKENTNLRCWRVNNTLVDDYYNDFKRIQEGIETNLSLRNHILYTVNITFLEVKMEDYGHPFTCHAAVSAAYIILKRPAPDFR

binding result [1]: no binding
binding result [2]: no binding
B1: HB0034 (antibody, V domains shown)
VH: QVQLVQSGAEVKKPGASVKVSCKASGYTFTSSWMHWAKQAPGQGLEWIGEIHPNSAKTNYNQKFQGRVTMTRDTSISTAYMELSRLRSDDTAVYYCARVDYGKPWFAYWGQGTLVTVSS
VL: QIVLTQSPGTLSLSPGERATLSCRASSSVSSSYLHWYQQKPGQAPRLWIYSTSSRATGIPDRFSGSGSGTDFTLTISRLEPEDFATYYCQQFQSSPLTFGQGTKLEIK
